Experiment: soluble on expression in E. coli; label from the status in PepcDB or PDB records

Sequence | soluble on expression in E. coli
MGSDKIHHHHHHACSLQQYQTKIVANNNYGIYQSLTRKGPVRQMGVTGTFKYSHFQASSVKKIKHNTYWYVLINGHKAGWVNQSAFARNKISVAKRVSLVKNPYYDFNVKDAINYVTDSSGSVVDLDKVHVSQNTVSSAKAGIHNITYTYGKGKAHSLIRVRNDQYEGIVNANKKPQMGKSGVTWFKHFKTSGNWGKGSSYAPETKPHVLKNGNFKLKTVFYQPATLSQGDSKLGVVGPLPEGLAVSDGRMYATMYDRPTRTHAHIVSYQLNQIPNRYVMQKLPWLPWPEFARLSATIKVSPLIKLGHGQAISTSKKYIYVIANNHLLRNNPESEEIMQISKNDLQIKKIWTFKIWDQKSEYGRYVHNAVFLNDHKFIAVYHSSTMNRFEYWEVTRHGNSWYPKEIGATKGEFMRNNSPVQGIAYDKHKKQIYLAFNDYLFKLNRKGRVIENGHFNTGREFEGICVDNKTFYAELAQRPELLKQKLK | not soluble
MLGMTHFSQQDNFSVAARVLGALFYYAPESAEAAPLVAVLTSDGWETQWPLPEASLAPLVTAFQTQCEETHAQAWQRLFVGPWALPSPPWGSVWLDRESVLFGDSTLALRQWMREKGIQFEMKQNEPEDHFGSLLLMAAWLAENGRQTECEELLAWHLFPWSTRFLDVFIEKAEHPFYRALGELARLTLAQWQSQLLIPVAVKPLFR | not soluble
SLSPAPTTMDFTPAPLEDTSSRPQFCKWPCECPPSPPRCPLGVSLITDGCECCKMCAQQLGDNCTEAAICDPHRGLYCDYSGDRPRYAIGVCAQVVGVGCVLDGVRYNNGQSFQPNCKYNCTCIDGAVGCTPLCLRVRPPRLWCPHPRRVSIPGHCCEQWVCEDDAKRPRKTAPRDTGAFDAVGEG | soluble
MSLSARAEDINNIENKTIGHGRTSYNKSVSGRVENIRLSTESVDYVVLGSGDTFTFNGIVGERTKERGYQVASVIMDGDFTDGLGGGICQTSTTLYNAVLDAGLTVLERHPHSLPVGYVEEGMDAMVSWGSADLRFRNDFDYPVVIRGGVDKEKGEVWFDIREGHHHHHH | soluble
LALHKVIMVGSGGVGKSALTLQFMYDEFVEDYEPTKADSYRKKVVLDGEEVQIDILDTAGLEDYAAIRDNYFRSGEGFLLVFSITEHESFTATAEFREQILRVKAEEDKIPLLVVGNKSDLEERRQVPVEEARSKAEEWGVQYVETSAKTRANVDKVFFDLMREIRTKKMSENK | soluble
MGSDKIHHHHHHMTQDLAQFAAERGIKYFMISYTDLFGAQRAKLVPAQAIADMQKDGAGFAGFATWLDLTPAHPDLFAVPDASSVIQLPWKKDVAWVAADCVMDDKPVEQAPRVMLKKLVDEAASMGLRVKTGVEPEFFLISADGKTISDEFDTAEKPCYDQQALMRRYDVIAEICDHMLELGWKPYQNDHEDANGQFEMNWEYDDALKTADKHSFFKFMVKSVAEKHGLRATFMPKPFKGLTGNGCHAHISVWDNDGKVNAFADKAMPFGLSAKGKTFLGGIMKHASALAAVTNPTVNSYKRINAPRTVSGATWAPNTVTWTGNNRTHMVRVPGPGRFELRLPDGAVNPYLLQAIIIAAGLSGLKTNADPGPHYDIDMYREGHTVTDAPKLPLNLLDALRAYEADTELQQALGEEFSAAYLKLKHGEWTSYCSQFTPWEHQTTLDI | not soluble
YWFRSHKLERQLAEFQMQNELQYRYYAELEQKYRESRKIMHDMKNHLQAVEHLYQAKDGQEQGGAYVKDLYHMLNLLGEKYYSSNRMLNIICNDKLSLARHPAVAISVEIGDVDFSDLRDIDITTIFANLLDNALEAVEAFGEGAYLNLKIQEVHHFRVISIVNASRPGMKKEGHMGVGLENVRRTVEAYQGTMQCEIVGEEYRVSVMLPGKEDS | not soluble
MKTAAYMIHCLTNMHVGKGDATYEVVDKCVQRDVTTGMPCIYSSSLKGALRQFFSKQGFAELNYVFGKDQSRDKKNNGNEKNEEEHSVGNFTFFQANLLAYPVQTTQEGATYILKTNKTLQDPIKELANLFSAPSNIEEMLPKETEKDLSNETLEQLPVIARNQLDNGKSENLWYEEVVPAESRFVFFVSYDDEEIFTKFDKIIQEKVIQIGANGSIGYGFCKIANVTNPFKK | soluble
MGSDKIHHHHHHMLKQLILENWKSFRYAELPLDPLTVLIGTNASGKSNVVEALEFLQRIARGENVEAALAGDKTLVSIRGGVEWAARKQETGFTLQTLIQGEDETQDYLYTVQIQTIPEVRVIQEQITFENINQDNVVYNKKHLTVKNPIFPTKSGLENLELHVDINDLMQFFPPDQNILLGDKDFLETLNNVLLPFRNKACKFVVASLKNIFILNPIASNMRNYSRLADDLESDASNIAGVLAALPDDLKLEIELTLSTYIKDLPEGDIKKVWAEKVGRFGTDAMLYCQEEWKPGHSTDIDARSMSDGTLRFLAILTALLTRPEGSQIVIEEIDNGLHPSRAKLLVKILREIGSKRNIDILLTTHNPALLDALGPDTVPFVVVAHRDAETGESKLTLLENIDNFSKLFASYSLGEMTTKGAIERSLSHSE | not soluble
GSAMAPTNDQLTDLQEAHFVVFESEENSESVMDGFVEHPFYTATLNGQKYVVMKTKDDSYWKDLIVEGKRVTTVSKDPKNNSRTLIFPYIPDKAVYNAIVKVVVANIGYEGQYHVRIINQDINTKDDDTSQ | soluble
SMSNTTIEDEDVKARKQEIIKVTEQLIEAINNGDFEAYTKICDPGLTAFEPEALGNLVEGMDFHRFYFENALSKSNKPIHTIILNPHVHLVGDDAACIAYIRLTQYMDGSGMPKTMQSEETRVWHRRDGKWQNVHFHRSGSPTV | soluble
MIMLKEYSLKALQTAINQAMKLDEQMPQKLQKLDGKTLEMVITPLNVNFYIRFKGSEMQLLHRIDGRPDTIIHSNPIGLIRLSLLPTSKARSLFNDKIRISGDIELGQSVKKLFDEIDIDWEGHLAHFTGDVVAHQIGSFVRKGLEFKNQFSTSMQQNITEFLQEELRICPSRNELEDFFAEVDELVLSVDRLQAHINNLMSDDEGN | not soluble
MPTPPVSVLVAQMGEGPAPLYARVKQMIIQQIDNGSWPPHHRVPSESELVNELGFSRMTINRALRELTAEGLLVRMQGVGTFVAEPKGRSALFEVNNIADEIAARGHQHSCQVITLAEEAAGSERALALDMREGQRVFHSLIVHFENGVPVQIEDRYVNAAIAPDYLKQDFTRQTPYAYLSQVAPLTEGEHVVEAILAEPEECTLLQIDRGEPCLLIRRRTWSGRQPVTAARLIHPGSRHRLEGRFSK | not soluble
MGSDKIHHHHHHMERTNTTTFKFFSLGGSNEVGRSCHILQYKGKTVMLDAGIHPAYQGLASLPFYDEFDLSKVDILLISHFHLDHAASLPYVMQRTNFQGRVFMTHPTKAIYRWLLRDFVRVTSIGSSSSSMGTKDEGLFSDEDLVDSFDKIETVDYHSTVDVNGIKFTAFHAGHVLGAAMFQIEIAGLRVLFTGDYSREVDRHLNSAEVPPLSSNVLIVESTFGTATHEPRLNRERKLTQLIHSTVMRGGRVLLPVFALGRAQEIMLILDEYWSQHADELGGGQVPIFYASNLAKKCMSVFQTYVNMMNDDIRKKFRDSQTNPFIFKNISYLRNLEDFQDFGPSVMLASPGMLQSGLSRDLLERWCPEDKNLVLITGYSIEGTMAKFIMLEPDTIPSINNPEITIPRRCQVEEISFAAHVDFQENLEFIEKISAPNIILVHGEANPMGRLKSALLSNFASLKGTDNEVHVFNPRNCVEVDLEFQGVKVAKAVGNIVNEIYKEENVEIKEEIAAKIEPIKEENEDNLDSQAEKGLVDEEEHKDIVVSGILVSDDKNFELDFLSLSDLREHHPDLSTTILRERQSVRVNCKKELIYWHILQMFGEAEVLQDDDRVTNQEPKVKEESKDNLTNTGKLILQIMGDIKLTIVNTLAVVEWTQDLMNDTVADSIIAILMNVDSAPASVKLSSHSCDDHDHNNVQSNAQGKIDEVERVKQISRLFKEQFGDCFTLFLNKDEYASNKEETITGVVTIGKSTAKIDFNNMKILECNSNPLKGRVESLLNIGGNLVTPLC | not soluble
MGHHHHHHSHMQHLENSSLFEGSLSKNLSLNSQALKENLYYEAGKMLAISLVHGGPSPGFFSKTLFNCLVYGPENTQPILDDVSDFDVAQIIIRINTATTVADLKSIINECYNYLELIGCLRLITTLSDKYMLVKDILGYHVIQRVHTPFESFKQGLKTLGVLEKIQAYPEAFCSILCHKPESLSAKILSELFTVHTLPDVKALGFWNSYLQAVEDGKSTATMEDILIFATGCSSIPPAGFKPTPSIECLHVDFPVGNKCNNCLAIPITNTYKEFQENMDFTIRNTLRLEKEESSHYIGH | not soluble
TVVEEDTGGNTDLEAVRRTLLAQFEQYAKLNKKIPAEIIGSINGIAENSRLTDTVAAHLQLKLAQRQQILEIPEIGKRMEFLLAQLESELDIMQAEKRIRGRVKRQMEKSQREYYLNEQIKAIHKELGEEDENGELDALEADIKKAGMTKEAEEKCLSELKKLKMMPPMSAESTVVRNYIDTLLELPWKKKSRVSKDIAKAGLVLDADHYGLEKVKERILEYLAVQKRMDKLKGPILCLVGPPGVGKTSLGESIAKATGRKYVRMALGGVRDESEIRGHRRTYIGSMPGKILQNMAKAGVKNPLFLLDEIDKLGNDFRGDPASALLEVLDPEQNNKFADHYAEVDYDLSDVMFIATSNSLNIPTPLLDRMEIIRL | not soluble
GVSTAVAQDFTIAAKHAIAVEANTGKILYEKDATQPVEIASITKLITVYLVYEALENGSITLSTPVDISDYPYQLTTNSEASNIPMEARNYTVEELLEATLVSSANSAAIALAEKIAGSEKDFVDMMRAKLLEWGIQDATVVNTTGLNNETLGDNIYPGSKKDEENKLSAYDVAIVARNLIKKYPQVLEITKKPSSTFAGMTITSTNYMLEGMPAYRGGFDGLKTGTTDKAGESFVGTTVEKGMRVITVVLNADHQDNNPYARFTATSSLMDYISSTFTLRKIVQQGDAYQDSKAPVQDGKEDTVIAVAPEDIYLIERVGNQSSQSVQFTPDSKAIPAPLEAGTVVGHLTYEDKDLIGQGYITTERPSFEMVADKKIEK | soluble
MLIDMILAFSVAPTETPNNKAEMADVVAEAIRVVRESGLPNETNAMFTLIEGEWDEVMAVVKKATDAVLAVSPRASLVIKADIRPGYTGQLQQKVASVERVLAGDSES | not soluble
MSLKAAQYAGNKSFNVVDGAKVPPAEGEVCLQVGYTGICGTDMHIYHGVMDQRVSIPQIIGHEMSGTVVEVGAGVTDYTVGDRVVVRPLDYCGDCPACNAGHSHVCHNLKFMGIDSPGAFQSYWTVKARTLHALPDNVSLKQGALIEPLSVACHDVARTRLQAGEKALVIGGGPIGQLVALVAKSVGAEVMISEVSEARLKFAAERGIKTVNPVTDDIEAVVKEWTGGKGADAVFEVSGVAAAVETMTKVAAVRGRICMVAIHSQKPQVDLFQFFWKELELLGARVYESADFEHAIELVASGKIDVDSFISSVTSLNDIGTAFASMDNNPAGMKALVECNEGHHHHHH | soluble
FINNPNRHFANNYHFAKELALELKKQDVLELATAPSLQKRLRFYGIKNSNKFYLKALKQADKHDMDKKIVKVKLGKYEKVYQILNYD | not soluble
MAHHHHHHMDSTYKEPSSAAVPTSYAVLSLPSKATMRRKGYNPDEVNYNGGLATHPLATWKTFSLPDGCTYKDAVSAVQTANAKPWGPIKIRLNFSDGRYEQFERVAPSVMDSLQSTTTYSPNDAFKAETLSLSTMRRAQQQPRLRPLVDERGHHLSNKPIPRTFAPEELYKNCPPPVLSQPGYDFTPISYNTFLLNPQDPPHGVRNVQSNFMHSSCDYRPRSYLRPEQATGTSHASRHCHCNEVFQVGDHTMDFACEGTTVDHRNRLVKKDYSPVGTLKANSSIVGRRHARKPRFGCTGVADSQTVAAAVAPAADEETA | soluble
